Source: US20260258452, “RNA-GUIDED NUCLEASES AND ACTIVE FRAGMENTS AND VARIANTS THEREOF AND METHODS OF USE” (Life Edit Therapeutics, Inc., published 2026)

T1: APG07991 (Enterococcus sp.)
T1 chain: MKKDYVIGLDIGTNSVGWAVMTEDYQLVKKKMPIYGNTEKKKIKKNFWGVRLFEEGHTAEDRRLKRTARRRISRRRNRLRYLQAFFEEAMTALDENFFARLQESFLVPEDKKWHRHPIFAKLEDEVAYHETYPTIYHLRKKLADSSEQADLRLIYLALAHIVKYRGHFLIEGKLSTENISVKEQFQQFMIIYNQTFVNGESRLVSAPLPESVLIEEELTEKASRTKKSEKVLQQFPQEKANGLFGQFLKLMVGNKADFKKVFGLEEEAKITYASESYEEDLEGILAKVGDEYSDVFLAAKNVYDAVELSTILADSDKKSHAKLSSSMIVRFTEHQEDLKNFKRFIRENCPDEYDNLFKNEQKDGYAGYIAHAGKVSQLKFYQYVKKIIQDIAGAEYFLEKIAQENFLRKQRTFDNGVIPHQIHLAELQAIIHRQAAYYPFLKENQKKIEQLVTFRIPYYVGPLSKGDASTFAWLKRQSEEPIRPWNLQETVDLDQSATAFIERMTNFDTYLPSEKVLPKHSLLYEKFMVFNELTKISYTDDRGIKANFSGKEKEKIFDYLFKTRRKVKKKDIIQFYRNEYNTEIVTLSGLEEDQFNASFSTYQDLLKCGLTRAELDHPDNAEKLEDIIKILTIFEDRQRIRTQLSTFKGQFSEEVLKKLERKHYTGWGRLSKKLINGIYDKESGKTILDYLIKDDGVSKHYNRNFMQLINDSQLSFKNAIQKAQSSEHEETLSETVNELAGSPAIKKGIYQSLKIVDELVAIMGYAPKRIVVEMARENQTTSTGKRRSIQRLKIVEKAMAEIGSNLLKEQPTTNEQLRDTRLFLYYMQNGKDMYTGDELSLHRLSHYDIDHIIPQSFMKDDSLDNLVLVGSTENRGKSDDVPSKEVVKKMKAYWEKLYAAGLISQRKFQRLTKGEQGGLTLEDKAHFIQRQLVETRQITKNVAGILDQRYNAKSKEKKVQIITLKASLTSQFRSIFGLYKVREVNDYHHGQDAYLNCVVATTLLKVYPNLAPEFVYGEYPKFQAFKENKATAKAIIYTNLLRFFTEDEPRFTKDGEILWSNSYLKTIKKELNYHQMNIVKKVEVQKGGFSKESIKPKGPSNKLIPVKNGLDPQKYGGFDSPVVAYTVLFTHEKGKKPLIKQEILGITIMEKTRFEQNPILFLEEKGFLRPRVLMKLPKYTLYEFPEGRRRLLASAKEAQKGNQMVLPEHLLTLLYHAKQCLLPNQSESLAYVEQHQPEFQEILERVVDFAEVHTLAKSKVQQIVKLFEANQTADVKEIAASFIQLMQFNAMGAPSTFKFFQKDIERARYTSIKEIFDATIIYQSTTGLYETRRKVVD

T2: APG01868 (Enterococcus sp.)
T2 chain: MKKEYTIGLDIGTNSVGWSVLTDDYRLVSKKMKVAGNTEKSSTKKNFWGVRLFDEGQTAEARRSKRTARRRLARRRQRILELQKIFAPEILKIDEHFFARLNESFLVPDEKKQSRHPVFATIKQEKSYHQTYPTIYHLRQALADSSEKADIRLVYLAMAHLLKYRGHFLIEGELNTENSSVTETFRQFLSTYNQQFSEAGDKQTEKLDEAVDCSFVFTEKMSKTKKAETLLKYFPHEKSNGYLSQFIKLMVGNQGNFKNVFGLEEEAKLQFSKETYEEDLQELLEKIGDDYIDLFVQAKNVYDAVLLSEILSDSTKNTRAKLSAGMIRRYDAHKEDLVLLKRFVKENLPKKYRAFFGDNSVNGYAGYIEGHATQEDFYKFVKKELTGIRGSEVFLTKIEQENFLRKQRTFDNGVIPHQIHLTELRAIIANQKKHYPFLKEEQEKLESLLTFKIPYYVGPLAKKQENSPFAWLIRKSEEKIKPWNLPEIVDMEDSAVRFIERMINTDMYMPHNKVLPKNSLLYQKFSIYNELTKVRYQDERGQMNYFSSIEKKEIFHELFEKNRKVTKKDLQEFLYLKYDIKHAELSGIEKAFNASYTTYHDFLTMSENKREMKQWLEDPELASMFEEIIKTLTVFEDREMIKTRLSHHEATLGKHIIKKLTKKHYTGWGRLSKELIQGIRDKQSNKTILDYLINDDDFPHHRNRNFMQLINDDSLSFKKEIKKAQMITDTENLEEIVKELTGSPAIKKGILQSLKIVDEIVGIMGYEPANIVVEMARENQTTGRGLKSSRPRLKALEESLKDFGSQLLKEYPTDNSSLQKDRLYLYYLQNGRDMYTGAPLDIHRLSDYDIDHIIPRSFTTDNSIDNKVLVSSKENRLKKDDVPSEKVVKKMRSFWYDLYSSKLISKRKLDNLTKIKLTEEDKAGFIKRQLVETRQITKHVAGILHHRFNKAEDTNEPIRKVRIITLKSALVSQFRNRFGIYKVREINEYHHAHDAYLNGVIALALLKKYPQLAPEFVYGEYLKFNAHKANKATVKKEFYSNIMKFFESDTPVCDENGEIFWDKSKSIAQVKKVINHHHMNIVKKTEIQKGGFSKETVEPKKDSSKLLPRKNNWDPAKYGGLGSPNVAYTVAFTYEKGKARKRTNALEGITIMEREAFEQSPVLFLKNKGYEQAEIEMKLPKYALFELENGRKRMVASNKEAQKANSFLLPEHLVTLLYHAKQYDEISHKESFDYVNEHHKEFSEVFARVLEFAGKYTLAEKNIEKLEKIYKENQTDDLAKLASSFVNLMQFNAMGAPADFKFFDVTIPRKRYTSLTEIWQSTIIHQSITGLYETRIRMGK

T3: APG02998 (Enterococcus sp.)
T3 chain: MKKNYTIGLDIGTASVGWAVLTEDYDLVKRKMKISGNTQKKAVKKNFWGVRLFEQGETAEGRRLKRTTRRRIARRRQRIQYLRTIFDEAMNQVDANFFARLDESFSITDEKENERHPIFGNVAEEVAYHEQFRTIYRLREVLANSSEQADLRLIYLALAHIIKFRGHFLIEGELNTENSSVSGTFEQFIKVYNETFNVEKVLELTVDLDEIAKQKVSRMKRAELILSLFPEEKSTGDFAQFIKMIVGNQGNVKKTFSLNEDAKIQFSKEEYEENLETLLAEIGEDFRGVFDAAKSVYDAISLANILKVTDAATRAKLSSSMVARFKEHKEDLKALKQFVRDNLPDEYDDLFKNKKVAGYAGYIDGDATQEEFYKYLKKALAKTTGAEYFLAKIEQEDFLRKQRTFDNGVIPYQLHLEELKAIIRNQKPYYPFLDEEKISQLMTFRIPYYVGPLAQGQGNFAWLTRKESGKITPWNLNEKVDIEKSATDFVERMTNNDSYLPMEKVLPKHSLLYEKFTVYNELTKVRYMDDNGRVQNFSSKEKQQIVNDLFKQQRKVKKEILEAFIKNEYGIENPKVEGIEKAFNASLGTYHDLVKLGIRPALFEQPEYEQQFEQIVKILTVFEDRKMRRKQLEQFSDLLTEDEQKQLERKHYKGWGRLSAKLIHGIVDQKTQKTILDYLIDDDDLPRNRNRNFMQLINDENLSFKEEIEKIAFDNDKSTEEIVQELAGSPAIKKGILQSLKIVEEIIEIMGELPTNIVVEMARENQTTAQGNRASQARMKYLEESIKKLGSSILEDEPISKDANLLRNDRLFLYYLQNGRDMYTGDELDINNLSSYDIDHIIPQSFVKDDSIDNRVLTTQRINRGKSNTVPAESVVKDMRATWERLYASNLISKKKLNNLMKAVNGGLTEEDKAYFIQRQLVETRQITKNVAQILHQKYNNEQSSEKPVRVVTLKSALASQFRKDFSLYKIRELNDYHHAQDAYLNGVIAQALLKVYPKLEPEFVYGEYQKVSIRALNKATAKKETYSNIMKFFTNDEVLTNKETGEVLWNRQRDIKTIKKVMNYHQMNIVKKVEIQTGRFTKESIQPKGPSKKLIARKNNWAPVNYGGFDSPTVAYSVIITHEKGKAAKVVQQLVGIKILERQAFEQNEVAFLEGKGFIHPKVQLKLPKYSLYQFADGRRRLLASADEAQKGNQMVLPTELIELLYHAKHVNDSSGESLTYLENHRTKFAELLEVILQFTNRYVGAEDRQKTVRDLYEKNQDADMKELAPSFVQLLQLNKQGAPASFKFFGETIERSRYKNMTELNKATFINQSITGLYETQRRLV

B1: SGN001357 ; HAO1 target SGN001357 (ssRNA ; dsDNA)
RNA: CAUUGAUACAAAUUAGCCGGGUUUUAGAGUCAUGUUGAAAGCAACAUAGCAAGUUAAAAUAAGGUUUUAACCGUAAUCAACUGUAAAGUGGCGCUGUUUCGGCGCUUUU
DNA 1: CATTGATACAAATTAGCCGG
DNA 2: CCGGCTAATTTGTATCAATG
B2: SGN001343 ; TRA target SGN001343 (ssRNA ; dsDNA)
RNA: UCUGUGGGACAAGAGGAUCAGUUUUAGAGCUAUGCAAAGGCAUAGCAAGUUAAAAUAAGGCUUUGUCCGUCAUCAGCUUUUUUAAAGCAGCGCUGUUCUCGGCGCUUUU
DNA 1: TCTGTGGGACAAGAGGATCA
DNA 2: TGATCCTCTTGTCCCACAGA
B3: SGN001346 ; TRA target SGN001346 (ssRNA ; dsDNA)
RNA: UCUGUGGGACAAGAGGAUCAGUUUUAGAGCUAUGCAAAGGCAUAGCAAGUUAAAAUAAGGCUUAGUCCGUAAACAAACUUUGGCACUGUAUUCGGUGCUUUUUUU
DNA 1: TCTGTGGGACAAGAGGATCA
DNA 2: TGATCCTCTTGTCCCACAGA
B4: SGN001317 ; RelA target SGN001317 (ssRNA ; dsDNA)
RNA: ACAGUGCGCAUCUCCCUGGUCACCAGUUUUAGAGCUAUGCAAAGGCAUAGCAAGUUAAAAUAAGGCUUUGUCCGUCAUCAGCUUUUUUAAAGCAGCGCUGUUCUCGGCGCUUUU
DNA 1: ACAGTGCGCATCTCCCTGGTCACCA
DNA 2: TGGTGACCAGGGAGATGCGCACTGT
B5: SGN001320 ; RelA target SGN001320 (ssRNA ; dsDNA)
RNA: ACAGUGCGCAUCUCCCUGGUCACCAGUUUUAGAGCUAUGCAAAGGCAUAGCAAGUUAAAAUAAGGCUUAGUCCGUAAACAAACUUUGGCACUGUAUUCGGUGCUUUUUUU
DNA 1: ACAGTGCGCATCTCCCTGGTCACCA
DNA 2: TGGTGACCAGGGAGATGCGCACTGT

Columns and labels:
Assay in all cases: cell_activity; PAM SEQ ID 116
Conditions in all cases: tags: N-terminal SV40 NLS and 3xFLAG, C-terminal nucleoplasmin NLS
APG07991 = target: T1, APG07991
Description: (§1) Additionally, products from PCR #2 containing Illumina overhang sequences underwent library preparation following the Illumina 16S Metagenomic Sequencing Library protocol. Deep sequencing was performed on an Illumina Mi-Seq platform by a service provider (MOGene). Typically, 200,000 of 250 bp paired-end reads (2×100,000 reads) are generated per amplicon. […] Output alignments were hand-curated to confirm insertion and deletion sites as well as identify microhomology sites at the recombination sites. All experiments were performed in human cells. The “target sequence” is the targeted sequence within the gene target. For each target sequence, the guide RNA comprised the complementary RNA target sequence and the appropriate sgRNA depending on the RGN used.

APG01868 = target: T2, APG01868
Description: as §1

APG02998 = target: T3, APG02998
Description: as §1

| Binder | activity (APG01868) | activity (APG02998) | other results |
| --- | --- | --- | --- |
| B1 |  |  | activity (APG07991): 13.3 % editing |
| B2 | 41.4 % editing |  |  |
| B3 |  | 5.87 % editing |  |
| B4 | 19.4 % editing |  |  |
| B5 |  | 3.48 % editing |  |
